Reference: patent US20260266848A1, “COMPOSITIONS AND METHODS FOR DIAGNOSING AND TREATING DYSTONIA” (Duke University, priority 2023, published 2026)

B1: Ephx1 (protein, UniProt Q9D379 1-455, looked up)
Epoxide hydrolase 1: MWLELILASVLGFVIYWFVSRDKEETLPLEDGWWGPGSKPSAKEDESIRPFKVETSDEEIKDLHQRIDRFRASPPLEGSRFHYGFNSSYLKKVVSFWRNEFDWRKQVEILNQYPHFKTKIEGLDIHFIHVKPPQLPSGRTPKPLLMVHGWPGSFYEFYKIIPLLTDPKTHGLSDEHVFEVICPSIPGYGFSEASSKKGLNSVATARIFYKLMSRLGFQKFYIQGGDWGSLICTNIAQMVPNHVKGLHLNMSFISRNIYSLTPLLGQRFGRFLGYTEKDLELLYPFKEKVFYNIMRESGYLHIQATKPDTVGCALNDSPVGLAAYILEKFSTWTKSEYRELEDGGLERKFSLEDLLTNIMIYWTTGTIVSSQRFYKENLGQGVMVHRHEGMKVFVPTGYSAFPSEILHAPEKWVKVKYPKLISYSYMERGGHFAAFEEPKLLAQDIRKFVSLAELQ
B2: Hmgcs1 (protein, UniProt Q8JZK9 1-520, looked up)
Hydroxymethylglutaryl-CoA …: MPGSLPLNAEACWPKDVGIVALEIYFPSQYVDQAELEKYDGVDAGKYTIGLGQARMGFCTDREDINSLCLTVVQKLMERHSLSYDCIGRLEVGTETIIDKSKSVKSNLMQLFEESGNTDIEGIDTTNACYGGTAAVFNAVNWVESSSWDGRYALVVAGDIAIYATGNARPTGGVGAVALLIGPNAPLIFDRGLRGTHMQHAYDFYKPDMLSEYPVVDGKLSIQCYLSALDRCYSVYRKKIRAQWQKEGKDKDFTLNDFGFMIFHSPYCKLVQKSLARMFLNDFLNDQNRDKNSIYSGLEAFGDVKLEDTYFDRDVEKAFMKASSELFNQKTKASLLVSNQNGNMYTSSVYGSLASVLAQYSPQQLAGKRVGVFSYGSGLAATLYSLKVTQDATPGSALDKITASLCDLKSRLDSRTCVAPDVFAENMKLREDTHHLANYIPQCSIDSLFEGTWYLVRVDEKHRRTYARRPFTNDHSLDEGMGLVHSNTATEHIPSPAKKVPRLPATSAESESAVISNGEH
B3: Lipg (protein, UniProt Q9WVG5 21-500, looked up)
Endothelial lipase: SITTLRPQGSLRDEHHKPTGVPATARPSVAFNIRTSKDPEQEGCNLSLGDSKLLENCGFNMTAKTFFIIHGWTMSGMFESWLHKLVSALQMREKDANVVVVDWLPLAHQLYTDAVNNTRVVGQRVAGMLDWLQEKEEFSLGNVHLIGYSLGAHVAGYAGNFVKGTVGRITGLDPAGPMFEGVDINRRLSPDDADFVDVLHTYTLSFGLSIGIRMPVGHIDIYPNGGDFQPGCGFNDVIGSFAYGTISEMVKCEHERAVHLFVDSLVNQDKPSFAFQCTDSSRFKRGICLSCRKNRCNNIGYNAKKMRKKRNSKMYLKTRAGMPFKVYHYQLKVHMFSYNNSGDTQPTLYITLYGSNADSQNLPLEIVEKIELNATNTFLVYTEEDLGDLLKMRLTWEGVAHSWYNLWNEFRNYLSQPSNPSRELYIRRIRVKSGETQRKVTFCTQDPTKSSISPGQELWFHKCQDGWKMKNKTSPFVNLA
B4: Shmt2 (protein, UniProt Q9CZN7 30-504, looked up)
Serine …: KVAQTQAGEAAGGWTGQESLSDSDPEMWELLQREKDRQCRGLELIASENFCSRAALEALGSCLNNKYSEGYPGKRYYGGAEVVDEIELLCQRRALEAFDLDPAQWGVNVQPYSGSPANLAAYTALLQPHDRIMGLDLPDGGHLTHGYMSDVKRISATSIFFESMPYKLNPQTGLIDYDQLALTARLFRPRLIIAGTSAYARLIDYARMREVCDEVRAHLLADMAHISGLVAAKVIPSPFKYADVVTTTTHKTLRGARSGLIFYRKGVRTVDPKTGKEIPYTFEDRINFAVFPSLQGGPHNHAIAAVAVALKQACTPMFREYSLQVLRNAQAMADALLKRGYSLVSGGTDTHLVLVDLRPKGLDGARAERVLELVSITANKNTCPGDRSAITPGGLRLGAPALTSRQFREDDFRRVVDFIDEGVNIGLEVKRKTAKLQDFKSFLLKDPETSQRLANLRQQVEQFARGFPMPGFDER
B5: Gmpr2 (protein, UniProt Q99L27 1-348, looked up)
GMP reductase 2: MPHIDNDVKLDFKDVLLRPKRSTLKSRSEVELTRSFSFRNSKQMYSGIPVIAANMDTVGTFEMARVLCKFSLFTAIHKHYSIHQWQEFASQNPDCLECLAASSGSGSADFEQLEQILEAIPQVKYICLDVANGYSEHFVEFVKDVRKRFPQHTIMAGNVVTGEMVEELILSGADIIKVGIGPGSVCTTRKKTGVGYPQLSAVMECADAAHGLKGHIISDGGCSCPGDVAKAFGAGADFVMLGGMLAGHSESGGELIERDGKKYKLFYGMSSEMAMKKYSGGVAEYRASEGKIVEVPFKGDVEHTIRDILGGIRSTCTYVGAAKLKELSRRTTFIRVTQQVNPIFSNSQ
B6: Apex1 (protein, UniProt P28352 2-317, looked up)
DNA repair nuclease/redox …: PKRGKKAAADDGEEPKSEPETKKSKGAAKKTEKEAAGEGPVLYEDPPDQKTSPSGKSATLKICSWNVDGLRAWIKKKGLDWVKEEAPDILCLQETKCSENKLPAELQELPGLTHQYWSAPSDKEGYSGVGLLSRQCPLKVSYGIGEEEHDQEGRVIVAEFESFVLVTAYVPNAGRGLVRLEYRQRWDEAFRKFLKDLASRKPLVLCGDLNVAHEEIDLRNPKGNKKNAGFTPQERQGFGELLQAVPLADSFRHLYPNTAYAYTFWTYMMNARSKNVGWRLDYFLLSHSLLPALCDSKIRSKALGSDHCPITLYLAL
B7: Hnrnpf (protein, UniProt Q9Z2X1 1-415, looked up)
Heterogeneous nuclear …: MMLGPEGGEGYVVKLRGLPWSCSIEDVQNFLSDCTIHDGVAGVHFIYTREGRQSGEAFVELESEDDVKLALKKDRESMGHRYIEVFKSHRTEMDWVLKHSGPNSADSANDGFVRLRGLPFGCTKEEIVQFFSGLEIVPNGITLPVDPEGKITGEAFVQFASQELAEKALGKHKERIGHRYIEVFKSSQEEVRSYSDPPLKFMSVQRPGPYDRPGTARRYIGIVKQAGLDRMRSGAYSAGYGGYEEYSGLSDGYGFTTDLFGRDLSYCLSGMYDHRYGDSEFTVQSTTGHCVHMRGLPYKATENDIYNFFSPLNPVRVHIEIGPDGRVTGEADVEFATHEEAVAAMSKDRANMQHRYIELFLNSTTGASNGAYSSQVMQGMGVSAAQATYSGLESQSVSGCYGAGYSGQNSMGGYD
B8: Dars (protein, UniProt Q922B2 1-501, looked up)
Aspartate--tRNA ligase, …: MPSTNASRKGQEKPREIVDAAEDYAKERYGISSMIQSQEKPDRVLVRVKDLTVQKADDVVWVRARVHTSRAKGKQCFLVLRQQQFNVQALVAVGDHASKQMVKFAANINKESIIDVEGVVRKVNQKIGSCTQQDVELHVQKIYVISLAEPRLPLQLDDAIRPEVEGEEDGRATVNQDTRLDNRVIDLRTSTSQAIFRLQSGICHLFRETLINKGFVEIQTPKIISAASEGGANVFTVSYFKNNAYLAQSPQLYKQMCICADFEKVFCIGPVFRAEDSNTHRHLTEFVGLDIEMAFNYHYHEVVEEIADTLVQIFKGLQERFQTEIQTVSKQFPCEPFKFLEPTLRLEYCEALAMLREAGVEMDDEEDLSTPNEKLLGRLVKEKYDTDFYVLDKYPLAVRPFYTMPDPRNPKQSNSYDMFMRGEEILSGAQRIHDPQLLTERALHHGIDLEKIKAYIDSFRFGAPPHAGGGIGLERVTMLFLGLHNVRQTSMFPRDPKRLTP
B9: Eif2b1 (protein, UniProt Q99LC8 1-305, looked up)
Translation initiation factor …: MEDGELIEYFKSQMKGDPKMASAVAAIQTLLEFLKRDKGETLQGLRANLTYAIKTLCGVDSSVAVSSGGELFLRFISLTSLEYSDYSKCKKIMIERGELFLRRISLSRNKIANLCHTFIKDGARILTHAYSRVVLRVLEEAVAAKKRFSVYITESQPDLSGKKMAKALSHLNVPVTVVLDAAVGYIMEKADLVIVGAEGVVENGGIINKIGTNQMAVCAKAQNKPFYVVAESFKFVRLFPLNQEDVPDKFKYKADTLKSVQTGQDLKEEHPWVDYTSPSLITLLFTDLGVLTPSAVSDELIKLYL

tested on: WT MEF EVs; assay: Quantitative LC-MS/MS proteomics of EVs from ISRIB-treated WT MEF cultures; format: cell-based, mouse; parameters: key to ISRIB and DYT Parallel Direction / ISRIB and DYT Parallel Direction, Ctdsp1 / ISRIB and DYT Parallel Direction, Pcdh19 / ISRIB and DYT Parallel Direction, Tspan7 / ISRIB and DYT Parallel Direction, Myo1e / ISRIB and DYT Parallel Direction, Plpp3 / ISRIB and DYT Parallel Direction, Sh3bp4 / ISRIB and DYT Parallel Direction, Dnajc7 / ISRIB and DYT Parallel Direction, Drg1 / ISRIB and DYT Parallel Direction, Maea: YES = protein abundance effect similar to DYT/WT; conditions: EV protein abundance, ISRIB-treated WT vs WT

**Q.** How did the “WT + ISRIB/WT Cohen's d” value turn out when B1 was run?
**A.** −0.32

**Q.** B2 was tested. Which “WT + ISRIB/WT Cohen's d” value did it give?
**A.** −0.06

**Q.** Which “WT + ISRIB/WT Cohen's d” value does the source give for B3 here?
**A.** −2.47

**Q.** Which “WT + ISRIB/WT Cohen's d” value does the source give for B4 here?
**A.** −1.44

**Q.** How did the “WT + ISRIB/WT Cohen's d” value turn out when B5 was run?
**A.** −2.98

**Q.** With B6 as the molecule, how does the “WT + ISRIB/WT Cohen's d” value read?
**A.** −0.67

**Q.** Which “WT + ISRIB/WT Cohen's d” value does the source give for B7 here?
**A.** −0.18

**Q.** For B8, which “WT + ISRIB/WT Cohen's d” value is on record?
**A.** −1.13

**Q.** For B9, which “WT + ISRIB/WT Cohen's d” value is on record?
**A.** −0.70

same assay, conditions: EV protein abundance, WT + ISRIB vs WT, direction compared with DYT/WT

**Q.** Which “ISRIB and DYT Parallel Direction” value does the source give for B1 here?
**A.** YES

**Q.** How did the “ISRIB and DYT Parallel Direction” value turn out when B2 was run?
**A.** YES

**Q.** Which “ISRIB and DYT Parallel Direction” value does the source give for B3 here?
**A.** YES

**Q.** How did the “ISRIB and DYT Parallel Direction” value turn out when B4 was run?
**A.** YES

**Q.** How did the “ISRIB and DYT Parallel Direction” value turn out when B5 was run?
**A.** YES

**Q.** With B6 as the molecule, how does the “ISRIB and DYT Parallel Direction” value read?
**A.** YES

**Q.** For B7, which “ISRIB and DYT Parallel Direction” value is on record?
**A.** YES

**Q.** With B8 as the molecule, how does the “ISRIB and DYT Parallel Direction” value read?
**A.** YES

**Q.** How did the “ISRIB and DYT Parallel Direction” value turn out when B9 was run?
**A.** YES

tested on: DYT-TOR1A MEF EVs; assay: Quantitative LC-MS/MS proteomics of EVs from drug-treated DYT-TOR1A MEF cultures (ritonavir, salubrinal); format: cell-based, mouse; parameters: key to RTV Corrective Direction / RTV Corrective Direction, Grwd1 / RTV Corrective Direction, Srrm2 / RTV Corrective Direction, Rbm17 / RTV Corrective Direction, Dcaf8 / RTV Corrective Direction, Edil3 / RTV Corrective Direction, Timp3 / RTV Corrective Direction, Heatr3 / RTV Corrective Direction, Brd4 / RTV Corrective Direction, P3h4 / RTV Corrective Direction, Pacsin3 / RTV Corrective Direction, Naa50 / RTV Corrective Direction, Lpar6 / RTV Corrective Direction, Ndrg1 / RTV Corrective Direction, Kntc1 / RTV Corrective Direction, Cdk11b / RTV Corrective Direction, Sumo1 / RTV Corrective Direction, Lsm4 / RTV Corrective Direction, Hmga2 / RTV Corrective Direction, Cstf1 / RTV Corrective Direction, Tes / RTV Corrective Direction, Sbno1 / RTV Corrective Direction, Unc119b / RTV Corrective Direction, Cfdp1 / RTV Corrective Direction, Sec61b: YES = protein abundance effect opposite to DYT/WT; conditions: EV protein abundance, DYT + RTV (ritonavir) vs DYT, direction compared with DYT/WT

**Q.** B1 was tested. Which “RTV Corrective Direction” value did it give?
**A.** YES

**Q.** With B2 as the molecule, how does the “RTV Corrective Direction” value read?
**A.** YES

**Q.** How did the “RTV Corrective Direction” value turn out when B3 was run?
**A.** YES

**Q.** Which “RTV Corrective Direction” value does the source give for B4 here?
**A.** YES

**Q.** For B5, which “RTV Corrective Direction” value is on record?
**A.** YES

**Q.** For B6, which “RTV Corrective Direction” value is on record?
**A.** YES

**Q.** B7 was tested. Which “RTV Corrective Direction” value did it give?
**A.** YES

**Q.** With B8 as the molecule, how does the “RTV Corrective Direction” value read?
**A.** YES

**Q.** How did the “RTV Corrective Direction” value turn out when B9 was run?
**A.** YES

same assay, conditions: EV protein abundance, ritonavir (RTV)-treated DYT vs DYT

**Q.** How did the “DYT + RTV/DYT Cohen's d” value turn out when B1 was run?
**A.** 1.48

**Q.** With B2 as the molecule, how does the “DYT + RTV/DYT Cohen's d” value read?
**A.** 7.26

**Q.** With B3 as the molecule, how does the “DYT + RTV/DYT Cohen's d” value read?
**A.** 2.88

**Q.** Which “DYT + RTV/DYT Cohen's d” value does the source give for B4 here?
**A.** 8.98

**Q.** Which “DYT + RTV/DYT Cohen's d” value does the source give for B5 here?
**A.** 5.10

**Q.** How did the “DYT + RTV/DYT Cohen's d” value turn out when B6 was run?
**A.** 8.06

**Q.** Which “DYT + RTV/DYT Cohen's d” value does the source give for B7 here?
**A.** 8.04

**Q.** For B8, which “DYT + RTV/DYT Cohen's d” value is on record?
**A.** 9.32

**Q.** How did the “DYT + RTV/DYT Cohen's d” value turn out when B9 was run?
**A.** 5.03
